{"source": "patent US20240368568", "about": "“MODIFIED PRP43 HELICASE AND USE THEREOF” (QITAN TECHNOLOGY LTD., CHENGDU, published 2024)", "key": {"[1]": {"target": "Prp43-GP-2 (F181C/N623C/C508S) (Chaetomium thermophilum)", "assay": "EMSA; no significant dissociation with or without TMAD; 120 nM protein, 30 nM DNA", "details": "tags: C-terminal G-path domain fusion; GST tag removed; label: FAM", "method": "(§1) In this example, the binding of the N-terminus (M1-N60)-truncated wild-type Prp43 helicases or the modified protein constructs Prp43-GP and Prp43-GP-2 (F181C/N623C/C508S) to DNA, including the enhancement of nucleic acid binding following disulfide bond formation between mutant sites F181C and N623C in the mutants catalyzed by a TMAD catalyst, was assayed by an electrophoresis mobility shift assay.\n(§2) The experimental procedures were as follows: 30 nM FAM fluorophore-labeled single-stranded poly-thymine substrate T44-37-FAM was added to a buffer (10 mM HEPES, 50 mM KCl, pH 7.0), the wild-type Prp43 helicase and the modified helicases […] and Prp43-GP-2 at a final concentration of 120 nM were separately added, and the mixture was incubated at 30° C. for 1.5 h; a TMAD cross-linking agent at a final concentration 1000 times that of the helicase was used for catalyzing the crosslinking of cysteines at mutation sites, and the mixture was incubated at 30° C. for 1.5 h."}, "[2]": {"target": "Prp43-GP (T61-A764 fused to G-path domain of Pfa1) (Chaetomium thermophilum)", "assay": "EMSA; milder dissociation than wild type; 120 nM protein, 30 nM DNA", "details": "tags: C-terminal G-path domain fusion; GST tag removed; label: FAM", "method": "as §1, §2"}}, "data": [{"binder": "TTTTTTTTTTTTTTTTTTTTTTTTTTTTTTTTTTTTTTTTTTTT (ssDNA, [FAM at T37 (from name)])", "note": "[T44-37-FAM poly-thymine substrate]", "values": [{"measurement": "binding result", "setting": "[1]", "result": "binds"}, {"measurement": "binding result", "setting": "[2]", "result": "binds"}]}]}
